Data taken from patent US20230270832A1 (published 2023).

Biological target: T1, MAGEA1 peptide on HLA-C*07:02 (human)
T1 peptide: VRFFFPSL
Assay: killing

B1: MAGEA1 TCR 32-41 (TCR, V domains shown)
Valpha: TQLLEQSPQFLSIQEGENLTVYCNSSSVFSSLQWYRQEPGEGPVLLVTVVTGGEVKKLKRLTFQFGDARKDSSLHITAAQPGDTGLYLCAGDESISYGKLTFGQGTILTVHP
Vbeta: DAGVIQSPRHEVTEMGQEVTLRCKPISGHDYLFWYRQTMMRGLELLIYFNNNVPIDDSGMPEDRFSAKMPNASFSTLKIQPSEPRDSAVYFCASSFLGWNEKLFFGSGTQLSVL
Question: Does B1 bind?
Answer: Result: recognises

B2: MAGEA1 TCR 32-39 (TCR, V domains shown)
Valpha: DQQVKQNSPSLSVQEGRISILNCDYTNSMFDYFLWYKKYPAEGPTFLISISSIKDKNEDGRFTVFLNKSAKHLSLHIVPSQPGDSAVYFCAASAQNNDMRFGAGTRLTVKP
Vbeta: NAGVMQNPRHLVRRRGQEARLRCSPMKGHSHVYWYRQLPEEGLKFMVYLQKENIIDESGMPKERFSAEFPKEGPSILRIQQVVRGDSAAYFCASSPSYEQYFGPGTRLTVT
Question: Does B2 bind?
Answer: Result: recognises
